Our source for the Km and kcat values is publication PMC4159212.

The Km is the substrate concentration at which the rate is half of its maximum. As a reminder, the kcat is the number of substrate molecules converted per active site and unit of time at saturation.

Substrate in the data set: COC1=C(OC)C(=O)C(CC=C(C)C)=C(C)C1=O
Description: PRODH steady-state kinetics. The data set is classed as biochemical, Rhodobacter capsulatus. The following applies: 200 mM proline fixed, 23 °C, 20 mM Tris pH 8.0, 10% glycerol.

B1: RcPutA (Rhodobacter capsulatus SB 1003) (protein)
chain: MTDLSALGPKAKFAPEAEVLQALVAQAALPQPQLDRIAARGADLVARIRAEAKPSLMEHFLAQYGLSTREGVALMCLAEAMLRVPDTATIDALIEDKIAPSDWGKHLGTAASSLVNASTWALMLTGKVLDDGAGGIAGTLRGAMRRLGEPVIRAAVGQAMREMGRQFVLGETIEKALERAEKREAEGYTFSYDMLGEAALTAADAERYRLAYAQAITAIGKAATRGSIAANPGISIKLSALHPRYEVAQEARVMAELVPVVRDLARAAARAGIALHIDAEEQDRLALSLRVMAAVIADPETAGWEGFGAVVQAYGKRAGAAIDALAAMARAAGRRINIRLVKGAYWDAEMKRAQVEGHPGFPLFTSKTGTDVAYICLAAKLFGLNDCIYPQFATHNAHTVAAVLEMAAGRPFEFQRLHGMGARLHDIVLRETGGRCRIYAPVGAHRDLLAYLVRRLLENGANSSFVNQIVNESVPPAEVAACPFAALPTARAPRGLLAPADLFGAGRVNAQGFDLSDPEVLARIEAARDVTLPDAAPIVAGPVSGTLRPVRNPATGAVVAQVTEADAATVALALDAAQVWSAPAATRAAVLCRAADLYEENFGPIFAALAQEAGKTLGDAVSELREAVDFLRYYAAEGAADTRPPRGAVVAISPWNFPLAIFTGQVAAALMAGNAVLAKPAEQTPIIAALAVRLLHQAGVPETALQLLPGDGPTVGAALTRDPRVAGVVFTGSTETAQIIARAMAAHLAPGTPLIAETGGLNAMVVDSTALPEQAVRDVVASAFRSAGQRCSALRCLYVQDDIAPHLIGMLKGAMEELVSGDPARLSTDVGPVIDAEAKAGIETYLAANKARILHRSTAPEGGHFVAPALLQVGGIADLEREIFGPVLHLATFAAEDLPAVIAAINARGYGLTFGLHSRIDARVETVAETIRAGNIYVNRNQIGAVVGSQPFGGEGLSGTGPKAGGPLYLNRFYAPEPVVAVGGWTEAATPILPEARETQLDEIFLPGPTGELNRLTRHQRGPILCLGPGAEAASAQAAAVVALGGQAVQASGAVSPKALETLTPLAGVLWWGAAEMGRAYAQALAVRPGPLVPLITAKPDLAHVAHERHLCVDTTAAGGNAALLAG
On to B1, for which the Km is 94 ± 19 µM and the kcat stood at 2.0 ± 0.1 s⁻¹.
